For one sequence, activity (fold cell survival vs wild type) results are on record in patent US9388233.

The target of this series is I-SceI mutants selected from G13/P14/N15/K20 saturation library (UniProt P03882). Nature of the series: cell_activity. Conditions: first selection round, library pool; individual mutants not given.
Sequence of UniProt P03882 (P03882 whole entry, change not shown): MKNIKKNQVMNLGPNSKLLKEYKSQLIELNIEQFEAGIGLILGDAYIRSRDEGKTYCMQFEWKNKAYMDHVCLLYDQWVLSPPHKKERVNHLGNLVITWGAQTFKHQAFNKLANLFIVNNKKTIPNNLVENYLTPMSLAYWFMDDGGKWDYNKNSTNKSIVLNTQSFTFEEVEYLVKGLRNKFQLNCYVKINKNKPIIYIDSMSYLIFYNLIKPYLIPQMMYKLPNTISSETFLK

As to “TAGGGATAACAGGGGTCT (double strand) [T3i1]”, the activity (fold cell survival vs wild type) is 10.
